Assay results published in publication PMC12817928, “Demonstration of in vivo efficacy, cryo-EM-epitope identification, and breadth of two anti-alphavirus bispecific single domain antibodies” (Journal of Virology, 2025).

Experiments:
Assay in all cases: cryo-EM structure
Conditions in all cases: both partners purified
[1] = target: T1, VEEV E1 envelope glycoprotein (strain TC83), in the VLP (Venezuelan equine encephalitis virus, …)
T1 construct: also called E1 subunit
T1 chain 1: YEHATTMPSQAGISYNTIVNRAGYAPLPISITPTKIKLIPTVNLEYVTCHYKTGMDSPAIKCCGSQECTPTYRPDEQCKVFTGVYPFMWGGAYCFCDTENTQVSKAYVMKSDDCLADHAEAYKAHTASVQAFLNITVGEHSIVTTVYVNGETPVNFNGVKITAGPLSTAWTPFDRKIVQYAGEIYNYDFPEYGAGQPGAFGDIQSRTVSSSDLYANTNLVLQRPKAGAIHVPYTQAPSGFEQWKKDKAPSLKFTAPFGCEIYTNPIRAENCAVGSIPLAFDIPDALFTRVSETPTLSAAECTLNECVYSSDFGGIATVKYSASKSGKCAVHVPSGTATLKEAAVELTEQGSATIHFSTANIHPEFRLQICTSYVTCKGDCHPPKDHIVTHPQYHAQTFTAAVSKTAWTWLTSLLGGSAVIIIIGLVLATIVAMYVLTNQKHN
T1 chain 2: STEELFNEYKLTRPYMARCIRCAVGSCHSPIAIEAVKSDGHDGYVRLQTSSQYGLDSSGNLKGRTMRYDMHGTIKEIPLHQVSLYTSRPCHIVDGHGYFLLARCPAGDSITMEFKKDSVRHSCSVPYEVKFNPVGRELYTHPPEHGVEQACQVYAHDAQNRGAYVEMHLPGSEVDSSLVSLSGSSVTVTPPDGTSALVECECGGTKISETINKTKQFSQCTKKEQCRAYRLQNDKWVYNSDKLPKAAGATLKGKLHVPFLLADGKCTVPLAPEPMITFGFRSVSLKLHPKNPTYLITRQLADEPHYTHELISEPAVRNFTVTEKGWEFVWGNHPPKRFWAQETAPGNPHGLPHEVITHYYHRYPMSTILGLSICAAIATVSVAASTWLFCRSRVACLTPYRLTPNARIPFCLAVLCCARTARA

[2] = target: T2, VEEV virus-like particle (VLP), strain TC83 (subtype IAB) (Venezuelan equine encephalitis virus, …, strain)
T2 construct: also called VEEV VLP; VEEV IAB VLP
T2 chain 1: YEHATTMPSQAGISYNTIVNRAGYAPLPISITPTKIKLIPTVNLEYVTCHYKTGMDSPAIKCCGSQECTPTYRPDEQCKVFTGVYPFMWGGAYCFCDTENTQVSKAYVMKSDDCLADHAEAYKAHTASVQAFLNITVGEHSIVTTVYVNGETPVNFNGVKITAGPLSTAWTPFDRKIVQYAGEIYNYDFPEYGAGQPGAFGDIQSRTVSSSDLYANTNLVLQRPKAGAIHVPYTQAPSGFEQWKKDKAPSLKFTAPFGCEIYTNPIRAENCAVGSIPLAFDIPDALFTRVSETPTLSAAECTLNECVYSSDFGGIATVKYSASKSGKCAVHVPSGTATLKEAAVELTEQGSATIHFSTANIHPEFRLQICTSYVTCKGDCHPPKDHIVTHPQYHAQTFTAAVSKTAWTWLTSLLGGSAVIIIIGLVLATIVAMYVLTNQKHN
T2 chain 2: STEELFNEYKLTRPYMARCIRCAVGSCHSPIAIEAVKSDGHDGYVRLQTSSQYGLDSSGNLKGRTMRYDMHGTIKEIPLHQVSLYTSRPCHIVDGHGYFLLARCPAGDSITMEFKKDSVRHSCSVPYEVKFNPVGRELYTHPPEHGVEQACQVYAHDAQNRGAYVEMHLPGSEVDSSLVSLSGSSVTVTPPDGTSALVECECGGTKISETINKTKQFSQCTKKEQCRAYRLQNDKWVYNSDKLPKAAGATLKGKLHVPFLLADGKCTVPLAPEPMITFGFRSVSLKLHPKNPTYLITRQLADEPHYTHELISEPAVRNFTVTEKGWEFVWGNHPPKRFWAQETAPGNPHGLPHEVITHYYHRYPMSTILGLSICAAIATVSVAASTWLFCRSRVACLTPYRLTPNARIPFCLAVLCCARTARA

[3] = target: T3, VEEV E2 envelope glycoprotein (strain TC83), in the VLP (Venezuelan equine encephalitis virus, …, strain)
T3 construct: also called E2 subunit
T3 chain 1: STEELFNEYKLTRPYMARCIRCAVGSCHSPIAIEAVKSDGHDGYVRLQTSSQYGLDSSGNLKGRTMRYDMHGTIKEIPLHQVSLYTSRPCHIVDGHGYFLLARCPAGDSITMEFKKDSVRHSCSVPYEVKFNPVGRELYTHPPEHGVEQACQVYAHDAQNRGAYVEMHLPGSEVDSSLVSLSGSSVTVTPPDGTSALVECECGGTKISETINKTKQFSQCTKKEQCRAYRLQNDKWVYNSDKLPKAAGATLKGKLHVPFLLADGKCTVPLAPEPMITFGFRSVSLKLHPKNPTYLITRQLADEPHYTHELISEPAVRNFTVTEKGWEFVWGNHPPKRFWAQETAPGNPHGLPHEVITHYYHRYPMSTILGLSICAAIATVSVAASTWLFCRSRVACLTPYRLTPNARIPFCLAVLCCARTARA
T3 chain 2: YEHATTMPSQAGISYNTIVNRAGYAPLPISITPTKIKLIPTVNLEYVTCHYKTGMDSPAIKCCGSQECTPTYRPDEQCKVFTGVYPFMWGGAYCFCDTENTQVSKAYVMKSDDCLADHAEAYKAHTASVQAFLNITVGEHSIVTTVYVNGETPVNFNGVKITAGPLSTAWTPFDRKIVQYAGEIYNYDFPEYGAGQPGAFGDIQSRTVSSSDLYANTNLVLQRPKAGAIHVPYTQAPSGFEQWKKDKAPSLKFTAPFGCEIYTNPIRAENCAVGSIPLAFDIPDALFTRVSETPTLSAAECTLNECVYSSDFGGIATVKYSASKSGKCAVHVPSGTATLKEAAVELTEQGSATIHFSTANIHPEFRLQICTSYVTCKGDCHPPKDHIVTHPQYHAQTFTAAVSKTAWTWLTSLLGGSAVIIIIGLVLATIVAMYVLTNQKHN

Measured: binding result

B1: sdAb V2C3 (VHH)
VHH: DVQLQASGGGSVQAGGSLRLSCVASQNLFEYYTMGWYRQVPGSQRERVALINNGGSNVAGSVEGRFTISRDNAKNSIYLQMNNLKPEDSAVYYCRAFGPADYWGQGTQVTVSS
notes: source: ClearColi BL21(DE3), purified (Ni Sepharose, MEP HyperCel, SEC)
binds: all assays above

B2: sdAb V2B3 (VHH)
VHH: EVQLQASGGGLVQAGGSLRLSCAASGSIVSINVMAWYRQSPGKERELVAKSSGPFTLYADSVKGRFTISNDAAKNTVDLQMNSLKPEDTAVYYCNAEGLRYPSGTYGPSAVWGQGTQVTVSS
notes: as for B1
binds: all assays above

B3: sdAb V3A8f (VHH)
VHH: DVQLQASGGGSVQAGGSLRLSCAASGHSFANYHVAWIRQTPGKEREFVGSASRRDDSTYYADFALGRFIISRDNDINTAYLQMNSLKPEDSAVYYCVAAVMAQTTQGWTTDYDLRGQGTQVTVSS
binds: all assays above
